Test results published in patent US20260029420A1 (Hoffmann-La Roche, published 2026).

Experiments:
human CB1 (full length) = target: T1, human CB1 (full length) (human, UniProt P21554 1-472); experiment: immunofluorescence, fixed cells
T1 construct: whole, on cells; In Western blot and immunoprecipitation the protein stood in cell lysate; also called hCB1; CHODukx CRE hCB1 Cl.20
Protocol: (§1) For IF analysis, methanol-fixed cells were incubated for 20 min in a humid chamber at 37° C. with the respective hCB2 and mCB2 clones. After rinsing twice and washing for 15 min in PBS, 125 μg/ml FITC-conjugated […] anti-mouse IgG antibodies (RAM/IgG (H+L)/FITC, Nordic

mouse CB2 (full length) = target: T2, mouse CB2 (full length) (mouse, UniProt P47936 1-347); experiment: immunofluorescence, fixed cells
T2 construct: whole, on cells; In Western blot and immunoprecipitation the protein stood in cell lysate; also called mCB2; CHO-A2 mCB2
T2 sequence (P47936 whole entry): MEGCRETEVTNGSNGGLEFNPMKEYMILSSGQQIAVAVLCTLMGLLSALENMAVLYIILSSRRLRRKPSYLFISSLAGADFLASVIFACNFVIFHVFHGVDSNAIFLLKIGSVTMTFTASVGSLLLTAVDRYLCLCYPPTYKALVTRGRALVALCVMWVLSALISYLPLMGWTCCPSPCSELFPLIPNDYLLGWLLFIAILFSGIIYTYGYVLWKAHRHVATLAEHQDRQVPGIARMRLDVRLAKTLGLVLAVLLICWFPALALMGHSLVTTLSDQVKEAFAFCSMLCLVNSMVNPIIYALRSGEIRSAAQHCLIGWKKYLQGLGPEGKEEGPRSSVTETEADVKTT
Protocol: as §1

Mouse_CB2-pANITA3.1 = target: T3, Mouse_CB2-pANITA3.1 (mouse); experiment: immunofluorescence, fixed cells
T3 construct: Fusion of the mouse CB2 N-terminal extracellular domain with mouse glycophorin A transmembrane and His-tagged cytoplasmic domains; Expressed on transfected HEK293 cells; also called pANITA3.1 mCB2 (JB176); mCB2 (JB176)
T3 sequence (chain, as listed by the source): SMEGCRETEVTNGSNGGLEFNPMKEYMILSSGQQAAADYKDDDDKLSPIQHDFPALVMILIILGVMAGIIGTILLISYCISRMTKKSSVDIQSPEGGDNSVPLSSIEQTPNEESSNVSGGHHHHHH
Protocol: as §1

human CB2 (full length) = target: T4, human CB2 (full length) (human, UniProt P34972 1-360); experiment: flow cytometry, CHO-DUKX_HOMSA_CNR2_Clone_90_CRE-Luc cells against CHO-DUKX parental cells
T4 construct: whole, on cells; In Western blot and immunoprecipitation the protein stood in cell lysate; also called hCB2; CHODukx CRE hCB2 Cl.90
T4 sequence (P34972 whole entry): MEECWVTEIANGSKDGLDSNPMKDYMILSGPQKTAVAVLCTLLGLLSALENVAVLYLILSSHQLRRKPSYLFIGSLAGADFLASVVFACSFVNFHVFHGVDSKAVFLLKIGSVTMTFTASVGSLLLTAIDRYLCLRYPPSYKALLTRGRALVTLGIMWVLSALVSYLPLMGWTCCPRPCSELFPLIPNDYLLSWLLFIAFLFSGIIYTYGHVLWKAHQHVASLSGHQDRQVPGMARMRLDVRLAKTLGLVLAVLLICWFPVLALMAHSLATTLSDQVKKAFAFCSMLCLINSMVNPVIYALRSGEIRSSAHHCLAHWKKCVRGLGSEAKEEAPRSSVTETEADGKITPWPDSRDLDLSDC
From the text: For detection an F(ab)₂ goat-anti Mouse IgG₃ PE antibody was used.

Human_CB2-pANITA3.1 = target: T5, Human_CB2-pANITA3.1 (human); experiment: Western blot, cell lysate
T5 construct: Expressed on transfected HEK293 cells; tested on fixed cells (IF) or in lysate (WB, IP); also called pANITA3.1 hCB2 (JB175); hCB2 (JB175)
T5 sequence (chain, as listed by the source): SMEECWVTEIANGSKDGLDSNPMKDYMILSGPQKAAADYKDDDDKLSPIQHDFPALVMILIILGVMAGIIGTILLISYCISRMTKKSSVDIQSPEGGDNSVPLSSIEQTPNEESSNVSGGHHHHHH
Protocol: For Western blot analysis, cells were collected using enzyme free dissociation buffer (Cell dissociation buffer enzyme-free Hanks'-based, Gibco), and washed two times with PBS. To prepare cell lysate, 10⁶ cells were lysed with 0.1 ml of lysis buffer (1% NP40, 10% glycerol, 2 mM EDTA, 137 mM NaCl, 20 mM TrisHCl, pH8, Protease Inhibitors) for 10 min on ice. The lysate was cleared by centrifugation at 20′000 g for 5 min. For SDS-PAGE cell lysate was resolved on precast 4-12% gradient gels (NuPAGE® Novex 4-12% Bis-Tris Gel, Invitrogen) with MES running buffer according to the manufacturer's directions. The separation of proteins was visualized by Colloidal Blue staining. The proteins were electrophoretically transferred to nitrocellulose membrane using a dry-blotting system (iBlot, Invitrogen). After blocking the membrane for 16 h in blocking buffer (5% Milk in PBS) at 4° C., specific proteins were detected with appropriate dilutions of mAbs in blocking buffer for 1 h at approximately 20° C. The membrane was then washed four times for 5 minutes in blocking buffer and incubated with horseradish peroxidase conjugated anti-mouse IgG mAb (GAM/IgG (g-chain)/HRP, Sigma, A9917) diluted 1:10'000 in blocking buffer at approximately 20° C. for 1 h. After washing again, blots were developed using ECL Western blotting detection reagents (ECL Western Blotting Substrate, Pierce) to visualize bands.

T1 sequence (P21554 whole entry): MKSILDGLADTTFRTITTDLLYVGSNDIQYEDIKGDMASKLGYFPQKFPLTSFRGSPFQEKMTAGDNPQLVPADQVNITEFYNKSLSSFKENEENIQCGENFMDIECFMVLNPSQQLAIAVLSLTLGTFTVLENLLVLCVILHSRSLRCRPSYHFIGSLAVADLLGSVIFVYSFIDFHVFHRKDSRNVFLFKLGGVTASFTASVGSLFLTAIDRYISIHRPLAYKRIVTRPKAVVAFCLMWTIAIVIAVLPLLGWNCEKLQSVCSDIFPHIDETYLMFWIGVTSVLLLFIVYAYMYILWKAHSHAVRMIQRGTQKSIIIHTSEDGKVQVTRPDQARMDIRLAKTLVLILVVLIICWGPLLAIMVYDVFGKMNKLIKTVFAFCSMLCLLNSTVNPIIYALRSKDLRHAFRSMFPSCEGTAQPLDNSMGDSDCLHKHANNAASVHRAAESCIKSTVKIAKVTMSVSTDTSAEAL

B1: Anti-CB2 clone 1/622 (antibody, IgG3, V domains shown)
VH: EVQLQQSGPELVKPGASVKISCKTSGYTFTEYTMHWVRQSHGKSLEWIGGIDRYNGDTYYNQKFKDKATLTVDRSSSTAYMELRSLTSEDSAVYFCARNGAMDYWGQGISVTVSS
VL: DVVMTQTPLSLPVSLGDQASISCRSSQSLVHSNGNTYLHWFLQKPGQSPKLLIYKVSIRFSGVPDRFSGSGSGTDFTLKISRVEAEDLGVYFCSQSTHVPPLTFGAGTKLELKR
B1: no binding (human CB1 (full length)); no binding (mouse CB2 (full length)); no binding (Mouse_CB2-pANITA3.1). The “signal to background ratio” value (human CB2 (full length)) was 10 and the binding result (Human_CB2-pANITA3.1) was “binds”.
